According to paper PMC7980507 (Protein Science : A Publication of the Protein Society, 2021):

B1: CB6 (antibody, V domains shown)
VH: EVQLVESGGGLVQPGGSLRLSCAASGFTVSSNYMSWVRQAPGKGLEWVSVIYSGGSTFYADSVKGRFTISRDNSMNTLFLQMNSLRAEDTAVYYCARVLPMYGDYLDYWGQGTLVTVSS
VL: not shown
B2: EY6A (antibody, V domains shown)
VH: EVQLVESGGGVVQPGRSLRLSCAASAFTFSSYDMHWVRQAPGKGLEWVAVISYDGSNKYYADSVKGRFTISRDNSKNTLYLQMNSLRAEDTAVYYCAKDGGKLWVYYFDYWGQGTLVTVSS
VL: not shown

Biological target: His‐tagged SARS‐CoV‐2 spike receptor binding domain (RBD) (SARS-CoV-2, UniProt P0DTC2)
Assay: BLI

Row | Binder | binding result
1 | B1 | binds
2 | B2 | binds
